In the DeepSol protein solubility set:

Assay: soluble on expression in E. coli; label from the status in PepcDB or PDB records

Soluble on expression in E. coli, not soluble:
MGSDKIHHHHHHMEEYIRRILTLGRKRLEKFALKGGKPLPERPLIVKLMEEIRGFLGSGENRVILLYGLRGVGKTTMLAQLYLKLIGEVSGERILYASVDEIKMLGYRLKDVFESYEHIIGERLEELREPTIFLLDEVHYDEEWDLALKVAYDRARNLMIVATGSSAIELKLSTDLARRAKRFHITPLTFTEYLLLKGIRVNEEVKKVLKRLLLAGEVEGIEEEIRKTFLTFDPIEVERYLLYGSLPLALSSREPLEETYSIVERIIRWDLAKMGFSQEVLEKAFLLMLMLASGEALNYDRLTSRLGISRPVLAKLLSAFENLEVIFPVRAYGSLGKAIRKTPKYKFLAPVIRTSILNHFGLLEVNEKILGNLLEDVVALYLYIIARELSGSVTYDAEKGGADFILTTPIGRIVLEVGWGKKGKEQVKRTMKKIGAERGIIIHGGDFREKNGVIWLPKEWFLLML
MGSDKIHHHHHHMEFPGVKALDDVHFSVKRGEIHALVGANGAGKSTLMKVLAGAYASYEGTILFDGVPLAIDSPNAAKRAGIEIVYQEVDTALVDYLTVAENICLDMLASGQLKGVIRRRRYEEIAERALQKLKASIDVRQRVSELRLAEKQLVLIARALVQESRFLILDEPTAPLSGRETEQLFRIIRELAEKEHLGVIFISHRLQELFEICESISVMRDGKMVSRQLLAGQTKETVVEQMLGRRLQKSSREARPAGAPSLELDRITVAGQLDEISLTVRAGEVIGIAGLVGAGKTELCKTIFGSIPVTSGLMRLAGETRRIRSAYDAVRLGIGLVPEERRKEGILVADPIEQNMTAASLKQFVNRFGFVEKKKERAAANRIVQQLSIKVSDTRQRAAELSGGNQQKVAIGKWLLADASVLVLDEPTKGVDVGAKAEIFQVIDQLAAEQKAVIYASSELDELLAVTDRIYVMYDGQIVFEATTSETTEEQLLWYATGGQQHE
MGSDKIHHHHHHMEFSNAERDVFLIKIEKMIDRGALMSRYSRASDPDIRSVYEKEFKTGAKSGEEFYRRIFLEYGDESIAELTTAQMGIQNVSNVASKIIEEIRIGLSYLEKSTRYVRYDKKVDGRYLYISPERIGISGDDAKDYVQLCDNLFEFYSKALPQVEDYLRHKFPQDKLVFQNAGGKTLTEMDQNEKKIAERSYINAVRSRALDDVRYILPASTLTNIGISGNGRALIHLIQKLMEYEIPETTKLAKDIYDELKPELPQLIDDALSGHGLEIINFKKNLMGLFPYDLTGNFERIRLLSYGEEDKELRKVASLIEYPFHGDAASLYSRSSESYVKYMKELIESIRSLRANRRMKPGRAFESVNYVFELNLNYGSFRDLQRHRFLGIIRKPLTAAYGYDTPPVISAIDELKTQYDELMANSSSFYQRLREKYGPWISQYVVPFAFKYPITFSTNLSEVTYFVELRSTAQAHFDLRDIAVSMYREVSKVHPTLSRIIKFVDTADYPLGRLSAEFRKESKKAGI
MGSDKIHHHHHHMEHLLEVNNLSVSFKVEEGEVQAVRNVSFNLKKGETLAIVGESGCGKSVLCKSLMRILPYNGYIKNGEVLLKSSDLVKKSEKEMEDIRGKNISMIFQDPMTSLNPTISIGKQIAEAVIIHQGISKSEAKKRAIELIELVGIDNPEKRFKQFPHHFSGGMRQRIVIAIALACNPDVLIADEPTTALDVTIQAQIIDLIKDLQHKIGLSIIFITHDLGVVATIADRIAVMYAGKIVEIGTVEDIFYDPRHPYTWGLLGSLPTLDSQDDYLYNIPGMPPNLLNPPKGDAFAIRNKNALKIDYEKEPPMFKINDTHSAATWLLHPDAPEVDVPVRVNCGRVISNE
MGSDKIHHHHHHMEIKETYDFSSIVDLWNKNIGTVYPMNLELFKQNYINDRQRKKIMGAFNGEILIGFVIYKQWTYKSGSLKPNHKIGYINSIIVDINFRHQGIGTKLLDAAEEELINSGVKILRCGSDTYHFFPGIPLECLPSEEFFLVRGYKMQDYFYDLIGDVSKVDFKKPSIKDGFKVNVMKPEDRKGLFEFLEKSFSGRWLEEFIEFFQVGMKERDIVLIKYKTSVIGFSHIYDNKSSFIGPPIYWKALLGHNYGGLGPIGIDKTYRKQGLGRLLLYESLQILKKREVKKMVIDWTEKDIINFYGRFNFMPWKAYRKATKEVKDGKG
MGSDKIHHHHHHMEILSLGEKIKARRKELNMTLKDLAGDRITPGQISLVESGKSNPSMDLLEYLAGALNTSVEYLMESEETQAEKICVYYENTAEAYMLNDELMEAEQYLEKAMYYAENYKISYRKARTLYLYGCINMNKNELGVAQQFFLSSNVLFIKLNHYEDIINTFINLGKITLNLKAYNSSCSYFEQAERVSRDNDIGNDFLIGEIYYYMSLVYFKMNNSNKTIKYCLMAKEKFAELENKKEYARTLLILSKEYSKSGDVDNAIKYSKKALKAFKENDNMFAVADIENELGKLFYEFENIEESFIHLNKAKEIRKKTKGHEFIETLCNICENYIKLKDTENSQKVLNEIKENIDGNNVFDILKYYMLKYRISILNRSLKEAENILLRALQYAENMELEKEAAEFSVIIGKYYIDNGDDVEAAKYLNSGIEKFKKIGVLKDL
MGSDKIHHHHHHMEKEIKNIIEMRHIVKDFNGFKANNDINLTLRKGEILALLGENGAGKSTLMSILSGLLEPTSGEIYVRGEKVNISGPNVATSLGIGMVHQHFMLAQAFTVLENIILGHETTKGLALDFKTAREKILALSKQYGLAIDPDAKISDITVAQQQRVEILKVLYRGADILIFDEPTAVLTPQEITEFIKIMKNLAKEGKSIILITHKLKEIKESADRVTVIRAGKSIQTVSVADANDEQLAEMMVGHHVNFKLDKAPLNLGKNILEVKDLHVNEDRGTDAVKGLSFNIRGGEILGLAGIDGNGQDELVEAITGLRHVEGGQVVINGQDLTNKPVRQITEAGVGHIPADRQKYGLILQLPLSENIASQTYYKEPYSKHGIMNEQTIREHARELIKKFDVRTTSEQLPASDLSGGNQQKAIIARELDRDADLIIAFQPTRGLDVGAIEYIHSQLLKQRDAGKAVLLVSYELDEILQLSDRIVVLHDGAESGEVKPDQTSETELGLLMTGKNTKKEAAAND
MGSDKIHHHHHHMEKKFNLENYLSYGVQNIVKGIIKSTLSNPKESLFMAKYSIASKNAIKLRAEADKIGEHVPPFLIASITSKCNLHCKGCYARHVNSCTDEKTVNQLTDEDWRRVFYEAKDIGVGFILLLGGEPLMRPNVIKIAGEIEDILFPIFTNGTMIDEKYIKLFQKYRNLIPIFSIEGNESNTDKRRGTGIYSEIIKKMNEAYENKIIYGASITVTKENIEEVTSEKFLDKLYSRGCKSVIYVEYVPVSEKEKKIALEGKEREFLKDKLVELRYKYEDILFISFPGDEKSSGGCLAAGRGFFHINFNGGVEPCPFSPYSDTNLKDLSLKEAMNSPLFRKLRKDNVLMEEHSGGCVLFEKEDIVQSLLQK
MGSDKIHHHHHHMEKTLVIEHDGEKAVVWETPQIFSENDYDYEVLEKALENTGGPLKEWRKKKYQEYKEWGFPRWKRCNLDGMSLPELSFKRIDLDVDISLLEKLDFEGAHRKFVLLGDTFFTDFRVYGDGKHMMRFDGDGIENVLVVVEKEAEIYKLSSTDRFRNTVMRILVKKNASLKFFNLDFFGNFSFDNVFIVLEEGARLVLRDFKAFGYRKTGHILVKLNKSSKADMKSFFYQNGSGITDLLYLMRFEGEDAEGKLKGNGVVDGAGKIVFRGILDVKRGSKNIVAEETEHTLVLSPDARMDAIPSLWVDENDVTASHSASSSSLDEDELFYLMTRGVDEIESKKLIVRGVFNELLDELDESVKGEVENVVNRIV
MGSDKIHHHHHHMELHIRLEGRKGLADQLYQQLRDGIDSGHLAAGSQLPPTRLLAEQLGVSRKTVAEAYSRLTYDNLLSGVVGRGTFVTPRHPLRSNESATLPLAGAASLERWQQRATVLSQRQLQAPSRYDFVGGASSKAQFPFDQWRSCLNYALRRSQRHPERQFPAQGLPELREAIAHHIAYSRGVHCSAADLLVCNGAQQALDLIARVLVEPGCQVAMEDPGYPPARQLFLALGARLQSVPVDDEGLCVEQIADGTRLIYVTPSHQFPLGMPMSEPRRHALLARAAELGALIIEDDYDCEFRYHGPASDALQRLDRHGLVAYVGTFSKTLLPELRLGYAVLPPAVLQAACVAKHLSDWHSPTLLQWALARFLGEGHLNKHIRRCHEVYSARRERILARLGGDLAPWFSAIPASAGFHLSALATPGVDVELLANLARKVEVGLYSLAPFFSEAPVRPGLLMGFGAIELLDIDPALDRVRDTLQRLS
